From US12129308

Biological target: Aggrecan
Test: competition ELISA (CAP) on Aggrecan; competitor not stated

IC50: 0.87 nM
B1: C010100626 (bispecific antibody, part only; not given: albumin binder and linker, not shown: small tags and cut ends)
chain, part: EVQLVESGGGLVQPGGSLRLSCAASGSTFIINVVRWYRRAPGKQRELVATISSGGNANYVDSVRGRFTISRDNSKNTVYLQMNSLRPEDTAVYYCNVPTTHYGGVYYGPYWGQGTLVTVSSEVQLVESGGGLVQPGGSLRLSCAASGSTFIINVVRWYRRAPGKQRELVATISSGGNANYVDSVRGRFTISRDNSKNTVYLQMNSLRPEDTAVYYCNVPTTHYGGVYYGPYWGQGTLVTVSS
